Data: US20180319842A1 (TUFTS MEDICAL CENTER, published 2018)
Groups on a side chain read outwards from the residue. No end group written: not given here. *: point of attachment. PEG8 = NCCOCCOCCOCCOCCOCCOCCOCCOCCC(=O)O; Palmitoyl = CCCCCCCCCCCCCCCC(=O)*

Experiments:
Assay in all cases: cell-based or functional assay
MrgprX1 F273L variant = MrgprX1 F273L variant (human, UniProt Q96LB2 1-322)
MrgprX1 I36V variant = MrgprX1 I36V variant (human, UniProt Q96LB2 1-322)
MrgprX1 R55L variant = MrgprX1 R55L variant (human, UniProt Q96LB2 1-322)
Sequence of MrgprX1 R55L variant (Q96LB2 whole entry R55L): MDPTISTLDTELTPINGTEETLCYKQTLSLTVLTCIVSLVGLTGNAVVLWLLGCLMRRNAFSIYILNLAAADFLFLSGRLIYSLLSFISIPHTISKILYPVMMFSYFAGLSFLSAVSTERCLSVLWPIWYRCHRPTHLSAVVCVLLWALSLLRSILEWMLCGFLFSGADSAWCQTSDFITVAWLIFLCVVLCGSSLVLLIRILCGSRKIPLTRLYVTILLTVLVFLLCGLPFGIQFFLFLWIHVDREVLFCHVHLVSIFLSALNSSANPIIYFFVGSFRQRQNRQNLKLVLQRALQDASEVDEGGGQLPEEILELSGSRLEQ

MrgprX1 R131S variant = MrgprX1 R131S variant (human, UniProt Q96LB2 1-322)
Sequence of MrgprX1 R131S variant (Q96LB2 whole entry R131S): as the sequence (Q96LB2 whole entry R55L) above, with L55R, R131S counted along it

MrgprX1 H137R variant = MrgprX1 H137R variant (human, UniProt Q96LB2 1-322)
Sequence of MrgprX1 H137R variant (Q96LB2 whole entry H137R): as the sequence (Q96LB2 whole entry R55L) above, with L55R, H137R counted along it

MrgprX1 A46T variant = MrgprX1 A46T variant (human, UniProt Q96LB2 1-322)
Sequence of MrgprX1 A46T variant (Q96LB2 whole entry A46T): as the sequence (Q96LB2 whole entry R55L) above, with A46T, L55R counted along it

MrgprX1 H133R variant = MrgprX1 H133R variant (human, UniProt Q96LB2 1-322)
Sequence of MrgprX1 H133R variant (Q96LB2 whole entry H133R): as the sequence (Q96LB2 whole entry R55L) above, with L55R, H133R counted along it

[1] = target: T1, Mas-related G protein-coupled receptor X1 (MrgprX1), wild type (human, UniProt Q96LB2 1-322)
T1 sequence (Q96LB2 whole entry): as the sequence (Q96LB2 whole entry R55L) above, with L55R counted along it

[2] = target: T1, Mas-related G protein-coupled receptor …; remark: listed apart in the source

Sequence of MrgprX1 F273L variant (Q96LB2 whole entry F273L): as the sequence (Q96LB2 whole entry R55L) above, with L55R, F273L counted along it
Sequence of MrgprX1 I36V variant (Q96LB2 whole entry I36V): as the sequence (Q96LB2 whole entry R55L) above, with I36V, L55R counted along it

Curve Maximum, SRE-luciferase reporter, HEK293 cells (MrgprX1 F273L variant): 95.9 % of WT signal at 10^-6 M lipidated BAM8-22
EC50 (nM), SRE-luciferase reporter, HEK293 cells (MrgprX1 F273L variant): 12.1 nM
pEC50, SRE-luciferase reporter, HEK293 cells (MrgprX1 F273L variant): 7.92
Curve Maximum, SRE-luciferase reporter, HEK293 cells (MrgprX1 I36V variant): 109 % of WT signal at 10^-6 M lipidated BAM8-22
EC50 (nM), SRE-luciferase reporter, HEK293 cells (MrgprX1 I36V variant): 9.3 nM
pEC50, SRE-luciferase reporter, HEK293 cells (MrgprX1 I36V variant): 8.03
Curve Maximum, SRE-luciferase reporter, HEK293 cells (MrgprX1 R55L variant): 108 % of WT signal at 10^-6 M lipidated BAM8-22
EC50 (nM), SRE-luciferase reporter, HEK293 cells (MrgprX1 R55L variant): 10.2 nM
pEC50, SRE-luciferase reporter, HEK293 cells (MrgprX1 R55L variant): 7.99
Curve Maximum, SRE-luciferase reporter, HEK293 cells (MrgprX1 R131S variant): 40.4 % of WT signal at 10^-6 M lipidated BAM8-22
EC50 (nM), SRE-luciferase reporter, HEK293 cells (MrgprX1 R131S variant): 57.1 nM
pEC50, SRE-luciferase reporter, HEK293 cells (MrgprX1 R131S variant): 7.24
Curve Maximum, SRE-luciferase reporter, HEK293 cells (MrgprX1 H137R variant): 109 % of WT signal at 10^-6 M lipidated BAM8-22
EC50 (nM), SRE-luciferase reporter, HEK293 cells (MrgprX1 H137R variant): 7.9 nM
pEC50, SRE-luciferase reporter, HEK293 cells (MrgprX1 H137R variant): 8.1
Curve Maximum, SRE-luciferase reporter, HEK293 cells (MrgprX1 A46T variant): 112 % of WT signal at 10^-6 M lipidated BAM8-22
EC50 (nM), SRE-luciferase reporter, HEK293 cells (MrgprX1 A46T variant): 9.5 nM
pEC50, SRE-luciferase reporter, HEK293 cells (MrgprX1 A46T variant): 8.02
Curve Maximum, SRE-luciferase reporter, HEK293 cells (MrgprX1 H133R variant): 110 % of WT signal at 10^-6 M lipidated BAM8-22
EC50 (nM), SRE-luciferase reporter, HEK293 cells (MrgprX1 H133R variant): 8.6 nM
pEC50, SRE-luciferase reporter, HEK293 cells (MrgprX1 H133R variant): 8.06
Curve Maximum, SRE-luciferase reporter, HEK293 cells [1]: 101 % of WT signal at 10^-6 M lipidated BAM8-22
EC50 (nM), SRE-luciferase reporter, HEK293 cells [1]: 12 nM
pEC50, SRE-luciferase reporter, HEK293 cells [1]: 7.92
potency relative to soluble BAM8-22, SRE-luciferase reporter, HEK293 cells [2]: ~100 fold higher potency than soluble BAM8-22
B1: Lipidated BAM8-22 (peptide)
peptide: VGRPEWWMDYQKRYGGGK([PEG8-Palmitoyl])
